In data set [1] the test system is PI(3)P liposomes. The experiment in a line: Yeast proteome chip probed with PI(3)P liposomes. To be noted: liposome binding signal on yeast proteome chip, Cy3-streptavidin detection. An excerpt:
(§1) To identify PI-binding proteins in yeast, liposomes were used as probes because the liposome provides the most relevant physiological condition to assay the interactors. Six types of liposomes were used. Each contains phosphatidylcholine (“PC”) with 1% (w/w) N-(biotinoyl)-1,2-dihexadecanoyl-sn-glycero-3-phosphoethanolamine, triethylammonium salt (biotin DHPE). The biotinylated lipid serves as a label that can be detected by Cy3-streptavidin (21). In addition to PC, the five other liposomes contain either 5% (w/w) PI(3)P, PI(4)P, PI(3,4)P2, PI(4,5)P2, or PI(3,4,5)P3 (FIG. 3A).
The protein-liposome interaction was assayed as follows. Appropriate amounts of each lipid in chloroform were mixed and dried under nitrogen. The lipid mixture was resuspended in TBS buffer by vortexing. The liposomes were created by sonication. Blocked proteome chips were washed three to five times in PBS buffer, and the extra liquid on the glass surface was removed by tapping the slides vertically on a KIMWIPE™. 200 μl of liposome solution was added to the proteome chip and immediately covered by a hydrophobic plastic cover slip (GRACE BIO-LAB™, USA). After trapped air bubbles were removed, the chip was incubated in a humidity chamber at RT for one hour. To remove the cover slip, the chip was immersed into large volume of PBS buffer (50 ml), so that the slip would float away. […]

Data set [2] deals with PI(3,4)P2 liposomes. The experiment in a line: Yeast proteome chip probed with PI(3,4)P2 liposomes. To be noted: liposome binding signal on yeast proteome chip, Cy3-streptavidin detection.
Excerpt: as §1
(§2) The protein-liposome interaction was assayed as follows. Appropriate amounts of each lipid in chloroform were mixed and dried under nitrogen. The lipid mixture was resuspended in TBS buffer by vortexing. The liposomes were created by sonication. Blocked proteome chips were washed three to five times in PBS buffer, and the extra liquid on the glass surface was removed by tapping the slides vertically on a KIMWIPE™. 200 μl of liposome solution was added to the proteome chip and immediately covered by a hydrophobic plastic cover slip (GRACE BIO-LAB™, USA). After trapped air bubbles were removed, the chip was incubated in a humidity chamber at RT for one hour. To remove the cover slip, the chip was immersed into large volume of PBS buffer (50 ml), so that the slip would float away. The chip was then moved to a second PBS bath (>50 ml) and washed 3×5 min with shaking at RT. After removing extra liquid on the surface of the chip, about 100 μl of Cy3 or Cy5 conjugated streptavidin (PIERCE™, USA; 1:2000 to 1:4000 dilution) was added to the surface and covered by a hydrophobic plastic cover slip (GRACE BIO-LABS™, USA). The chip was incubated for greater than 30 min in the dark at RT. The chip was then washed as described above. To completely remove the liquid on the chip, the chip was spun to dryness at 1500-2000 rpm for 5-10 min at RT.
(§3) • 1. S. Fields, Y. Kohara, D. J. Lockhart, Proc. Natl. Acad. Sci. 96, 8825 (1999); A. Goffeau et al., Science 274, 563 (1996). • 2 P. Ross-Macdonald et al., Nature 402, 413 (1999); J. L., DeRisi, V. R. Iyer, P. O. Brown, Science 278, 680 (1997); E. A. Winzeler et al., Science 285, 901 (1999). P. Uetz et al., Nature 403, 623 (2000); T. Ito et al., Proc. Natl. Acad. Sci. USA. 97, 1143 (2000) • 3 H. Zhu, M. Snyder, Curr. Opin. Chem. Biol. 5, 40 (2001). • 4 M. R. Martzen et al., Science 286, 1153 (1999). • 5 H. Zhu et al., Nat. Genet. 26, 283 (2000). • 6 G. MacBeath, S. L. Schreiber, Science 289, 1760 (2000). • 7 A. Caveman, J. Cell Sci. 113, 3543 (2000). • 8 P. Arenkov et al., Anal. Biochem 278, 123 (2000). • 9 D. A. Mitchell, T. K. Marshall, R. J. Deschenes, Yeast 9, 715 (1993). The expression vector pEGH was created by inserting an RGS-HisX6 epitope tag between the GST gene and the polycloning site of pEG(KG). The yeast ORFs were cloned using the strategy described previously (5), except every step was done in a 96-well format. Plasmid DNAs confirmed by DNA sequencing were reintroduced into both yeast (Y258) and E. coli (DH5a). […] 0.1 mM calcium was present in buffers in all subsequent steps. The chip was washed three times with PBS at RT. Cy3-conjugated streptavidin (Jackson IR, USA) (1:5000 dilution) was added to the chip and incubated for 30 min at RT. After extensive washing, the chip was spun dry and scanned using a microarray scanner; the data was subsequently acquired with the GENEPIX™ array densitometry software (Axon, USA). • 12 S. S. Hook, A. R. Means, Annu. Rev. Pharmacol. Toxicol.41, 471 (2001). • 13 M. S. Cyert, R. Kunisawa, D. Kaim, J. Thorner, Proc. Natl. Acad. Sci. USA 88, 7376 (1991). • 14 D. A. Stirling, K. A. Welch, M. J. Stark, EMBO J. 13, 4329 (1994). • 15 F. Bohl, Kruse, EMBO J. 19, 5514 (2000); E. Bertrand et al., Mol. Cell 2, 437 (1998). • 16 D. C. Winter, E. Y. Choe, R. Li, Proc. Nat. Acad Sci. USA 96, 7288 (1999). • 17 C.

The subject of data set [3] is PI(4,5)P2 liposomes. In words: Yeast proteome chip probed with PI(4,5)P2 liposomes. To be noted: liposome binding signal on yeast proteome chip, Cy3-streptavidin detection.
Excerpt: as §1, §2, §3

For data set [4], the system named is PI(4,5)P2 liposomes. The experiment in a line: Nitrocellulose membrane assay: adhered PI(4,5)P2 liposomes probed with GST fusion proteins. To be noted: dilution series, anti-GST antibodies, ECL. It is filed as binding. An excerpt: A. PI(4,5)P2 liposomes were first adhered to a nitrocellulose membrane, which was blocked by BSA; a dilution series of Rim15p, Eno2p, and Hxk1p, and a GST control were used to probe the membrane. The bound proteins were detected using the anti-GST antibodies and an enhanced chemiluminescence (“ECL”) kit.
Therefore, six proteins, i.e., Rim15p, Eno2p, Hxk1p, Sps1p, Yg1059wp, and Gcn2p, were further tested for phosphoinositol binding using two types of standard assays (Williamson, 2000, Nat. Struct Biol. 7(10):834-7). For Rim15p, Eno2p, and Hxk1p, PI(4,5)P2 liposomes were first adhered to a nitrocellulose membrane, which was then blocked by BSA; different amounts of the GST fusion proteins and a GST control were used to probe the membrane, and bound proteins were detected using anti-GST antibodies. […] We also carried out the reverse assay for four GST fusion proteins, Rim15p, Sps1p, Yg1059wp, and Gcn2p (Guerra et al., 2000, Biosci. Rep. 20: 41). Different amounts of these purified proteins were spotted onto nitrocellulose filters and probed with the six different liposomes (FIG. 5B). The bound liposomes were detected using a horseradish peroxidase (“HRP”)-conjugated streptavidin.

For data set [5], the system named is PI(4)P liposomes. In words: Yeast proteome chip probed with PI(4)P liposomes. To be noted: liposome binding signal on yeast proteome chip, Cy3-streptavidin detection.
Excerpt: as §1, §2
as §3, with “Pharmacol. Toxicol.41, 471 (2001). • 13 M. S. Cyert, R. Kunisawa, D. Kaim, J. Thorner, Proc. Natl. Acad. Sci. USA 88, 7376 (1991). • 14 D. A. Stirling, K. A. Welch, M. J. Stark, EMBO J. 13, 4329 (1994). • 15 F. Bohl, Kruse, EMBO J. 19, 5514 (2000); E. Bertrand et al., Mol. Cell 2, 437 (1998). • 16 D. C. Winter, E. Y. Choe, R. Li, Proc. Nat. Acad Sci. USA 96, 7288 (1999). • 17 C.” left out

Data set [6] concerns phosphatidylcholine (PC) liposomes. In words: Yeast proteome chip probed with PC liposomes. To be noted: liposome binding signal on yeast proteome chip, Cy3-streptavidin detection.
Excerpt: as §1, §2
as §3, with “Pharmacol. Toxicol.41, 471 (2001). • 13 M. S. Cyert, R. Kunisawa, D. Kaim, J. Thorner, Proc. Natl. Acad. Sci. USA 88, 7376 (1991). • 14 D. A. Stirling, K. A. Welch, M. J. Stark, EMBO J. 13, 4329 (1994). • 15 F. Bohl, Kruse, EMBO J. 19, 5514 (2000); E. Bertrand et al., Mol. Cell 2, 437 (1998). • 16 D. C. Winter, E. Y. Choe, R. Li, Proc. Nat. Acad Sci. USA 96, 7288 (1999). • 17 C.” left out

The text below walks through data of patent US20050182242A1, “Global analysis of protein activities using proteome chips” (priority 2001, published 2005).

Regarding “RIM15: yeast protein kinase, regulator of glucose metabolism, GST-HisX6 fusion”, the “PI(3)P” value in data set [1] turned out to be 52.50. Also, in data set [2], the “PI(3, 4)P2” value is on record as 4941.00. The “PI(4, 5)P2” value in data set [3] is 687.19. Moreover, the “binding to PI(4,5)P2 liposomes on membrane” value in data set [4] was “tightly bound PI(4,5)P2”. The “PI(4)P” value in data set [5] is 2349.00. The PC in data set [6] was found to be 244.76.
